Test results: US20110311550A1 (Scripps Research, published 2011)

Experiments:
Assay in all cases: ELISA, alanine mutant E1E2
H77 E1E2 mutant G530A = H77 E1E2 mutant G530A (HCV isolate H77, UniProt P27958 192-383; P27958 384-746)
H77 E1E2 mutant N417A = H77 E1E2 mutant N417A (HCV isolate H77, UniProt P27958 192-383; P27958 384-746)
H77 E1E2 mutant P545A = H77 E1E2 mutant P545A (HCV isolate H77, UniProt P27958 192-383; P27958 384-746)
H77 E1E2 mutant G547A = H77 E1E2 mutant G547A (HCV isolate H77, UniProt P27958 192-383; P27958 384-746)
H77 E1E2 mutant T526A = H77 E1E2 mutant T526A (HCV isolate H77, UniProt P27958 192-383; P27958 384-746)
H77 E1E2 mutant D535A = H77 E1E2 mutant D535A (HCV isolate H77, UniProt P27958 192-383; P27958 384-746)
H77 E1E2 mutant D533A = H77 E1E2 mutant D533A (HCV isolate H77, UniProt P27958 192-383; P27958 384-746)
H77 E1E2 mutant Q412A = H77 E1E2 mutant Q412A (HCV isolate H77, UniProt P27958 192-383; P27958 384-746)
H77 E1E2 mutant S419A = H77 E1E2 mutant S419A (HCV isolate H77, UniProt P27958 192-383; P27958 384-746)
H77 E1E2 mutant W529A = H77 E1E2 mutant W529A (HCV isolate H77, UniProt P27958 192-383; P27958 384-746)
H77 E1E2 mutant R543A = H77 E1E2 mutant R543A (HCV isolate H77, UniProt P27958 192-383; P27958 384-746)
H77 E1E2 mutant N540A = H77 E1E2 mutant N540A (HCV isolate H77, UniProt P27958 192-383; P27958 384-746)
H77 E1E2 mutant I414A = H77 E1E2 mutant I414A (HCV isolate H77, UniProt P27958 192-383; P27958 384-746)
H77 E1E2 mutant Y527A = H77 E1E2 mutant Y527A (HCV isolate H77, UniProt P27958 192-383; P27958 384-746)
H77 E1E2 mutant H488A = H77 E1E2 mutant H488A (HCV isolate H77, UniProt P27958 192-383; P27958 384-746)
H77 E1E2 mutant T534A = H77 E1E2 mutant T534A (HCV isolate H77, UniProt P27958 192-383; P27958 384-746)
H77 E1E2 mutant T416A = H77 E1E2 mutant T416A (HCV isolate H77, UniProt P27958 192-383; P27958 384-746)
H77 E1E2 mutant I422A = H77 E1E2 mutant I422A (HCV isolate H77, UniProt P27958 192-383; P27958 384-746)
H77 E1E2 mutant R483A = H77 E1E2 mutant R483A (HCV isolate H77, UniProt P27958 192-383; P27958 384-746)
H77 E1E2 mutant H421A = H77 E1E2 mutant H421A (HCV isolate H77, UniProt P27958 192-383; P27958 384-746)
H77 E1E2 mutant Y489A = H77 E1E2 mutant Y489A (HCV isolate H77, UniProt P27958 192-383; P27958 384-746)
H77 E1E2 mutant N532A = H77 E1E2 mutant N532A (HCV isolate H77, UniProt P27958 192-383; P27958 384-746)
H77 E1E2 mutant P491A = H77 E1E2 mutant P491A (HCV isolate H77, UniProt P27958 192-383; P27958 384-746)
H77 E1E2 mutant P525A = H77 E1E2 mutant P525A (HCV isolate H77, UniProt P27958 192-383; P27958 384-746)
H77 E1E2 mutant P484A = H77 E1E2 mutant P484A (HCV isolate H77, UniProt P27958 192-383; P27958 384-746)
H77 E1E2 mutant S424A = H77 E1E2 mutant S424A (HCV isolate H77, UniProt P27958 192-383; P27958 384-746)
H77 E1E2 mutant N415A = H77 E1E2 mutant N415A (HCV isolate H77, UniProt P27958 192-383; P27958 384-746)
H77 E1E2 mutant W487A = H77 E1E2 mutant W487A (HCV isolate H77, UniProt P27958 192-383; P27958 384-746)

| Binder | binding vs wild-type E1E2 (H77 E1E2 mutant G530A) | binding vs wild-type E1E2 (H77 E1E2 mutant N417A) | binding vs wild-type E1E2 (H77 E1E2 mutant P545A) | binding vs wild-type E1E2 (H77 E1E2 mutant G547A) | binding vs wild-type E1E2 (H77 E1E2 mutant T526A) | binding vs wild-type E1E2 (H77 E1E2 mutant D535A) | binding vs wild-type E1E2 (H77 E1E2 mutant D533A) | binding vs wild-type E1E2 (H77 E1E2 mutant Q412A) | binding vs wild-type E1E2 (H77 E1E2 mutant S419A) | binding vs wild-type E1E2 (H77 E1E2 mutant W529A) | binding vs wild-type E1E2 (H77 E1E2 mutant R543A) | binding vs wild-type E1E2 (H77 E1E2 mutant N540A) | binding vs wild-type E1E2 (H77 E1E2 mutant I414A) | binding vs wild-type E1E2 (H77 E1E2 mutant Y527A) | binding vs wild-type E1E2 (H77 E1E2 mutant H488A) | binding vs wild-type E1E2 (H77 E1E2 mutant T534A) | binding vs wild-type E1E2 (H77 E1E2 mutant T416A) | binding vs wild-type E1E2 (H77 E1E2 mutant I422A) | binding vs wild-type E1E2 (H77 E1E2 mutant R483A) | binding vs wild-type E1E2 (H77 E1E2 mutant H421A) | other results |
| --- | --- | --- | --- | --- | --- | --- | --- | --- | --- | --- | --- | --- | --- | --- | --- | --- | --- | --- | --- | --- | --- |
| MAb AR1A (antibody, V domains shown, also called IgG1 of Fab B2) VH: LEQSGAEVKKPGSSVKVSCRASGSPYSSYTITWVRQAPGQGLEWMGGIILMTGKANYAQKFQGRVTITADRATATAYMEMSSLTSDDTAIYYCARDPYVYAGDDVRSLSRWGQGTPVIVSS VL: not shown | 227% | 17% | 74% | 34% | 81% | 235% | 101% | 145% | 84% | 367% | 239% | 0% | 128% | 61% | 91% | 100% | 23% | 106% | 64% | 167% | binding vs wild-type E1E2 (H77 E1E2 mutant Y489A): 189%; binding vs wild-type E1E2 (H77 E1E2 mutant N532A): 82%; binding vs wild-type E1E2 (H77 E1E2 mutant P491A): 119%; binding vs wild-type E1E2 (H77 E1E2 mutant P525A): 101%; binding vs wild-type E1E2 (H77 E1E2 mutant P484A): 38%; binding vs wild-type E1E2 (H77 E1E2 mutant S424A): 103%; binding vs wild-type E1E2 (H77 E1E2 mutant N415A): 106%; binding vs wild-type E1E2 (H77 E1E2 mutant W487A): 89% |
| MAb AR2A (antibody, V domains shown, also called IgG1 of Fab G) VH: LEQSGAEMKKPGASLKVSCKTSGYTFDDYGVTWVRQAPGQGLEWMGWISAYSGNTFYARKFQGRVTMTTDPSTRTAYMELRSLRSDDTAVYFCARDRGLAINGVVFPYFGLDVWGQGTTVTVSS VL: ELTQSPVSLPVTPGEPASISCRSSQSLLHSNGNHYLDWYLQKPGQSPQLLMYLGSNRASGVPDRFSGSGSGTDFTLKISRVEAEDVGVYYCMQGLQTPWTFGQGTKVEIKR | 53% | 58% | 106% | 83% | 101% | 133% | 60% | 95% | 93% | 132% | 125% | 30% | 180% | 149% | 72% | 84% | 99% | 95% | 68% | 84% | binding vs wild-type E1E2 (H77 E1E2 mutant Y489A): 138%; binding vs wild-type E1E2 (H77 E1E2 mutant N532A): 58%; binding vs wild-type E1E2 (H77 E1E2 mutant P491A): 123%; binding vs wild-type E1E2 (H77 E1E2 mutant P525A): 109%; binding vs wild-type E1E2 (H77 E1E2 mutant P484A): 77%; binding vs wild-type E1E2 (H77 E1E2 mutant S424A): 91%; binding vs wild-type E1E2 (H77 E1E2 mutant N415A): 122%; binding vs wild-type E1E2 (H77 E1E2 mutant W487A): 93% |
| MAb AR3D (antibody, V domains shown, also called IgG1 of Fab L4) VH: LEQSGAEVKKPGSSVKVSCKASGDTFRSYVITWARQAPGQGLEWMGAIIPFFGTTNLAQKFQGRVTITADESTKTVYMDLSSLRSDDTAVYYCAKAGDLSVGGVLAGGVPHLRHFDPWGQGTLVTVSS VL: ELTQSPGTLSLSPGERATLSCRAGQTVASNSLAWYQHKPGQAPRLLIYGASIRASGIPDRFSGSGSGTDFTLTISRLEPEDFAVYYCQQYGLSSTFGQGTRLEIKR | 24% | 74% | 307% | 202% | 135% | 32% | 146% | 44% | 73% | 88% | 276% | 56% | 126% | 119% | 123% | 181% | 90% | 113% | 151% | 87% | binding vs wild-type E1E2 (H77 E1E2 mutant Y489A): 113%; binding vs wild-type E1E2 (H77 E1E2 mutant N532A): 159%; binding vs wild-type E1E2 (H77 E1E2 mutant P491A): 204%; binding vs wild-type E1E2 (H77 E1E2 mutant P525A): 53%; binding vs wild-type E1E2 (H77 E1E2 mutant P484A): 90%; binding vs wild-type E1E2 (H77 E1E2 mutant S424A): 6%; binding vs wild-type E1E2 (H77 E1E2 mutant N415A): 131%; binding vs wild-type E1E2 (H77 E1E2 mutant W487A): 119% |
| MAb AR1B (antibody, V domains shown, also called IgG1 of Fab D1) VH: LESGGGLVQPGGSLRLSCEASGYYFSSFAMSWVRQTPGKGLEWVSSIAGGTLGRTSYRDSVKGRFTISRDNSKNTVFLHMNNLRPEDTAVYYCAKDPLLFAGGPNWFDHWGQGTLVTVSS VL: not shown | 50% | 54% | 20% | 0% | 48% | 121% | 90% | 48% | 118% | 94% | 135% | 25% | 147% | 83% | 63% | 49% | 99% | 58% | 32% | 72% | binding vs wild-type E1E2 (H77 E1E2 mutant Y489A): 52%; binding vs wild-type E1E2 (H77 E1E2 mutant N532A): 73%; binding vs wild-type E1E2 (H77 E1E2 mutant P491A): 118%; binding vs wild-type E1E2 (H77 E1E2 mutant P525A): 33%; binding vs wild-type E1E2 (H77 E1E2 mutant P484A): 45%; binding vs wild-type E1E2 (H77 E1E2 mutant S424A): 103%; binding vs wild-type E1E2 (H77 E1E2 mutant N415A): 131%; binding vs wild-type E1E2 (H77 E1E2 mutant W487A): 70% |
